{"source": "paper PMC5337993", "origin": "cited, not measured here", "target": "Kv1.3 (Homo sapiens) (UniProt P22001)", "sequence (P22001 whole entry)": "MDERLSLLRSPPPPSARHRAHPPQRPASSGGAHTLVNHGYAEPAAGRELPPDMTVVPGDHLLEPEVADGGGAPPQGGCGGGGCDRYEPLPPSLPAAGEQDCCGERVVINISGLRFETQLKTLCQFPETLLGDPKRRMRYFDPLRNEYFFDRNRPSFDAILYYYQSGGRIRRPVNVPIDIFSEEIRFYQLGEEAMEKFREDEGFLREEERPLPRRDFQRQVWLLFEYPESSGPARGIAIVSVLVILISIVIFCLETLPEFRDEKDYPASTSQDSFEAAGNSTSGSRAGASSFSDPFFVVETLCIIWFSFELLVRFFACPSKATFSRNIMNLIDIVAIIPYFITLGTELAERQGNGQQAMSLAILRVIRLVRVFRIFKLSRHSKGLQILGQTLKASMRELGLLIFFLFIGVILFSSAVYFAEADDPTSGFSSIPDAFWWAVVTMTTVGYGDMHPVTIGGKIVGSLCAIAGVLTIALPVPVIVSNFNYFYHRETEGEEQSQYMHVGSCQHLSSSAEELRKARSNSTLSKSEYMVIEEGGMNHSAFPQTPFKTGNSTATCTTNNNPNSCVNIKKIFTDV", "data": [{"substance": "ShK (from UniProt P29187)", "values": [{"measurement": "Kd", "value": 10, "unit": "pM"}]}]}
